Data on one substance can be found in patent publication US20170369935.

This data set concerns T1, peptide LPETGGG bridging variable regions 4 and 5 (var 4-LPETGGG-var 5).
T1 sequence: LPETGGG

Turning to sortase (Chen et. al, 2011), the “kligation (sortase-catalyzed transpeptidation, loop opening on gel, room temperature)” value is reported as “kligation=11±1.3 min”.
